Residue numbers refer to the chain shown, from its start. In names and notes the source's numbering stands.
T1: EsCas13d, nuclease-dead (Eubacterium siraeum, UniProt B0MS50, R295A;H300A;R849A;H854A)
T1 sequence: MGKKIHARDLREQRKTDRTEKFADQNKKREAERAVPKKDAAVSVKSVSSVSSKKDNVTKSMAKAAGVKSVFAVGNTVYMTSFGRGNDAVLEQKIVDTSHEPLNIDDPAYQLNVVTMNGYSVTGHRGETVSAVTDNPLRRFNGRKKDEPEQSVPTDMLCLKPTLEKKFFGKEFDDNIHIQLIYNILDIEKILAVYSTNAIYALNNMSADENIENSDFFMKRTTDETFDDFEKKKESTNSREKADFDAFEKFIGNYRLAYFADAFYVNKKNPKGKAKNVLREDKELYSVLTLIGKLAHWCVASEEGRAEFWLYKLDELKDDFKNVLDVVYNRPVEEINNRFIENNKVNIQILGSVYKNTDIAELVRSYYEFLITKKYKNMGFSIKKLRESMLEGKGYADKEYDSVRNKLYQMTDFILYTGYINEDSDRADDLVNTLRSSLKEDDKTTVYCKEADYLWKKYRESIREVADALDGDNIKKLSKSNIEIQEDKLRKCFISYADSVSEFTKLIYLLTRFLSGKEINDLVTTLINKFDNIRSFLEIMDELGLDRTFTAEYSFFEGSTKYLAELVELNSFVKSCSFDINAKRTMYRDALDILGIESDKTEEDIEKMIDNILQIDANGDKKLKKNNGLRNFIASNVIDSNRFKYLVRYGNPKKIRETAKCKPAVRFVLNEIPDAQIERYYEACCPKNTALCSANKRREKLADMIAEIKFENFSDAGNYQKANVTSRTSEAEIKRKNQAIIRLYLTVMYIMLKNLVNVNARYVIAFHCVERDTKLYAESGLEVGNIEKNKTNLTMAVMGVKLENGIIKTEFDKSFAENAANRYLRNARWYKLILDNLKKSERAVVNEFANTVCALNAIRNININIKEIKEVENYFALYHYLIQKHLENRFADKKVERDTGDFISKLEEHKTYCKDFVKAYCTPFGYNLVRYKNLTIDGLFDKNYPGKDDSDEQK

B1: target 1 U8C,G17C (mixed)
RNA 1: CACCCGUGCAAAAAUGCAGGGGUCUAAAACUGAGCGGAUAACCUCUCUAUGG
RNA 2: GGGAAUGGAUCCACAUCUACGAAUUCGUACCAUACAGAGGUUACCCGCUCACCGAGAUCGGAAGAGCACACGU
B2: target 1 insA 3' of 19,insU 3' of 18 (mixed)
RNA 1: B1 RNA 1
RNA 2: GGGAAUGGAUCCACAUCUACGAAUUCGUACCAUAAUGAGAGGUUAUCCGCUCACCGAGAUCGGAAGAGCACACGU
B3: target 1 A9C,G17U (mixed)
RNA 1: B1 RNA 1
RNA 2: B1 RNA 2 with C35U, A43C, C44U
B4: target 1 C4A,G12A (mixed)
RNA 1: B1 RNA 1
RNA 2: B1 RNA 2 with C35G, G40A, C44U, C48A
B5: target 1 insA 3' of 4,insC 3' of 1 (mixed)
RNA 1: B1 RNA 1
RNA 2: GGGAAUGGAUCCACAUCUACGAAUUCGUACCAUAGAGAGGUUAUCCGCAUCACCCGAGAUCGGAAGAGCACACGU
B6: target 1 U11A,G12A (mixed)
RNA 1: B1 RNA 1
RNA 2: B1 RNA 2 with C35G, G40A, U41A, C44U
B7: target 1 insU 3' of 13,insA 3' of 10 (mixed)
RNA 1: B1 RNA 1
RNA 2: B2 RNA 2 with A35G, U36A, A40U, G42U, U44A
B8: target 1 insG 3' of 11,insA 3' of 10 (mixed)
RNA 1: B1 RNA 1
RNA 2: B2 RNA 2 with A35G, U36A, A40G, G41U, U44A
B9: target 1 insC 3' of 17,insG 3' of 8 (mixed)
RNA 1: B1 RNA 1
RNA 2: GGGAAUGGAUCCACAUCUACGAAUUCGUACCAUAGCAGAGGUUAUGCCGCUCACCGAGAUCGGAAGAGCACACGU
B10: target 1 insG 3' of 6,insA 3' of 4 (mixed)
RNA 1: B1 RNA 1
RNA 2: B5 RNA 2 with C48G, A49C, U50A, C51U, A52C, C53A
B11: target 1 del2,del5 (mixed)
RNA 1: B1 RNA 1
RNA 2: GGGAAUGGAUCCACAUCUACGAAUUCGUACCAUAGAGAGGUUAUCCCUACCGAGAUCGGAAGAGCACACGU
B12: target 1 A14G,A16C (mixed)
RNA 1: B1 RNA 1
RNA 2: B1 RNA 2 with C35G, A36C, A38G, C44U
B13: target 1 insG 3' of 1 (mixed)
RNA 1: B1 RNA 1
RNA 2: GGGAAUGGAUCCACAUCUACGAAUUCGUACCAUAGAGAGGUUAUCCGCUCAGCCGAGAUCGGAAGAGCACACGU
B14: target 1 insG 3' of 10,insU 3' of 9 (mixed)
RNA 1: B1 RNA 1
RNA 2: B9 RNA 2 with C36A, A37G, G38A, A39G, G41U, U43G, G46U
B15: target 1 G5C,A18U (mixed)
RNA 1: B1 RNA 1
RNA 2: B1 RNA 2 with A34U, C35G, C44U, G47C
B16: target 1 insC 3' of 22,insU 3' of 9 (mixed)
RNA 1: B1 RNA 1
RNA 2: B9 RNA 2 with A32C, U33A, A34U, G35A, C36G, G46U
B17: target 1 C7G,G17U (mixed)
RNA 1: B1 RNA 1
RNA 2: B1 RNA 2 with C35U, C44U, C45G
B18: target 1 insA 3' of 4,insA 3' of 2 (mixed)
RNA 1: B1 RNA 1
RNA 2: B5 RNA 2 with C53A
B19: target 1 insA 3' of 15,insU 3' of 1 (mixed)
RNA 1: B1 RNA 1
RNA 2: B5 RNA 2 with G39A, U41G, A43U, U44A, C45U, G47C, C48G, A49C, C53U
B20: target 1 insC 3' of 11,insG 3' of 11 (mixed)
RNA 1: B1 RNA 1
RNA 2: B2 RNA 2 with A35G, U36A, A40G, G41U, G42C, U43G
B21: target 1 insA 3' of 22,insA 3' of 2 (mixed)
RNA 1: B1 RNA 1
RNA 2: GGGAAUGGAUCCACAUCUACGAAUUCGUACACAUAGAGAGGUUAUCCGCUCAACCGAGAUCGGAAGAGCACACGU
B22: target 1 insC 3' of 12,insC 3' of 11 (mixed)
RNA 1: B1 RNA 1
RNA 2: B2 RNA 2 with A35G, U36A, A40G, G41C, G42U, U43C
B23: target 1 insC 3' of 22,insG 3' of 14 (mixed)
RNA 1: B1 RNA 1
RNA 2: B2 RNA 2 with A32C, U33A, A34U, U36G, G37A, A38G, G39A, A40G
B24: target 1 C7U,A14U (mixed)
RNA 1: B1 RNA 1
RNA 2: B1 RNA 2 with C35G, A38U, C44U, C45U
B25: target 1 C6U,C22A (mixed)
RNA 1: B1 RNA 1
RNA 2: B1 RNA 2 with C30A, C35G, C44U, C46U
B26: target 1 insU 3' of 12,insA 3' of 4 (mixed)
RNA 1: B1 RNA 1
RNA 2: B9 RNA 2 with C36A, A37G, G38A, A39G, G41U, G46C, C48G, G49C, C50A
B27: target 1 insG 3' of 11,insG 3' of 9 (mixed)
RNA 1: B1 RNA 1
RNA 2: B2 RNA 2 with A35G, U36A, A40G, G41U, U44A, A45G
B28: target 1 insG 3' of 14,insU 3' of 6 (mixed)
RNA 1: B1 RNA 1
RNA 2: B9 RNA 2 with C36A, A37G, G38A, A39G, G46C, C48U
B29: target 1 insG 3' of 14,insU 3' of 7 (mixed)
RNA 1: B1 RNA 1
RNA 2: B9 RNA 2 with C36A, A37G, G38A, A39G, G46C, C47U
B30: target 1 C4U,C6G (mixed)
RNA 1: B1 RNA 1
RNA 2: B1 RNA 2 with C35G, C44U, C46G, C48U
B31: target 1 insG 3' of 14,insC 3' of 10 (mixed)
RNA 1: B1 RNA 1
RNA 2: B2 RNA 2 with A35G, U36A, A40G, G42U, U44C
B32: target 1 insA 3' of 22,insC 3' of 1 (mixed)
RNA 1: B1 RNA 1
RNA 2: B21 RNA 2 with A53C
B33: target 1 G12A,A16C (mixed)
RNA 1: B1 RNA 1
RNA 2: B1 RNA 2 with C35G, A36C, G40A, C44U

These binders were tested against T1, EsCas13d, nuclease-dead (assay: crRNA (strand 1, pre-loaded); Mg2+; 40 mM Tris-HCl pH 7.5, 150 mM NaCl, 6 mM MgCl2, 1 mM DTT, 0.1% Tween-20, 0.2 mg/ml BSA; 25 C; 10 min per concentration, then washed). Settings: tags: His6-TwinStrep-SUMO cleaved; N-terminal SNAP kept (SNAP-Surface 488); label: 3' end held by stalled T7 RNA polymerase.

With B1 as the binder, how does the Kd read?
The Kd was 90 ± 32 nM.

For B2, which Kd is on record?
The Kd was 32 ± 1.6 nM.

With B3 as the binder, how does the Kd read?
Its Kd is 62 ± 23 nM.

For B4, which Kd is on record?
Its Kd is 4.9 ± 0.5 nM.

B5 was tested. Which Kd did it give?
The Kd was 18.9 ± 3.3 nM.

How did the Kd turn out when B6 was run?
The Kd was 4 ± 0.29 nM.

For B7, which Kd is on record?
The Kd was 26 ± 5 nM.

For B8, which Kd is on record?
Its Kd is 21.5 ± 2.4 nM.

Which Kd does the source give for B9 here?
Its Kd is 58 ± 16 nM.

For B10, which Kd is on record?
The Kd was 6.9 ± 0.4 nM.

How did the Kd turn out when B11 was run?
Its Kd is 16.9 ± 1 nM.

For B12, which Kd is on record?
The Kd was 67 ± 11 nM.

With B13 as the binder, how does the Kd read?
Its Kd is 9 ± 0.7 nM.

B14 was tested. Which Kd did it give?
The Kd was 18.1 ± 1.4 nM.

With B15 as the binder, how does the Kd read?
The Kd was 27 ± 4 nM.

For B16, which Kd is on record?
The Kd was 30 ± 5 nM.

With B17 as the binder, how does the Kd read?
Its Kd is 35 ± 5 nM.

For B18, which Kd is on record?
Its Kd is 6.2 ± 0.5 nM.

For B19, which Kd is on record?
Its Kd is 6.7 ± 0.7 nM.

For B20, which Kd is on record?
Its Kd is 42 ± 4 nM.

How did the Kd turn out when B21 was run?
The Kd was 12.7 ± 0.5 nM.

B22 was tested. Which Kd did it give?
Its Kd is 17 ± 2.8 nM.

B23 was tested. Which Kd did it give?
Its Kd is 47 ± 5 nM.

With B24 as the binder, how does the Kd read?
Its Kd is 37 ± 5 nM.

With B25 as the binder, how does the Kd read?
The Kd was 15.8 ± 1.4 nM.

Which Kd does the source give for B26 here?
The Kd was 6.6 ± 0.8 nM.

B27 was tested. Which Kd did it give?
The Kd was 17.2 ± 0.6 nM.

With B28 as the binder, how does the Kd read?
Its Kd is 39 ± 6 nM.

For B29, which Kd is on record?
Its Kd is 18.5 ± 1.2 nM.

How did the Kd turn out when B30 was run?
Its Kd is 5.28 ± 0.32 nM.

How did the Kd turn out when B31 was run?
Its Kd is 47 ± 12 nM.

B32 was tested. Which Kd did it give?
Its Kd is 12.8 ± 0.8 nM.

For B33, which Kd is on record?
The Kd was 36 ± 3.3 nM.
